This note sets out measurements from IntAct's records for PubMed 14528310.

The assay deals with Homer1, Q9Z214-1.
Chain of Homer1, Q9Z214-1 (Q9Z214 whole entry): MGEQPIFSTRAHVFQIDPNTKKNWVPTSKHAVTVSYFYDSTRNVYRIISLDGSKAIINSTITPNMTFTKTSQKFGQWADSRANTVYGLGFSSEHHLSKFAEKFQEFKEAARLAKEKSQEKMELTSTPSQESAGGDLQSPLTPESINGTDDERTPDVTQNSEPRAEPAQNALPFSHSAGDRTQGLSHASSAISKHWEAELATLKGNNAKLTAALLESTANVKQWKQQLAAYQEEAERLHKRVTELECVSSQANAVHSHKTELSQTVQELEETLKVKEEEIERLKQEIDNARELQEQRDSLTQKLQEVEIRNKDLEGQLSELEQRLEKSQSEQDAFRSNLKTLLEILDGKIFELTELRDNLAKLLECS

With “Arf-GAP with GTPase, ANK repeat and PH domain-containing protein 2 (Rattus norvegicus (Rat)), Q8CGU4 P187L”, the “effect of a mutation on the interaction” value is recorded as “disrupting interaction”.
